Nine proteins from publication PMC3104517 (Nature Communications, 2011) can be followed below.

This data set deals with the molecule itself. In words: 2D crystallisation on lipid monolayers, negative-stain TEM.

B1: AnxA5 triple mutant R16E/K27E/K56E (natural protein, rat)
chain: ALRGTVTDFSGFDGEADAEVLRKAMEGLGTDEDSILNLLTARSNAQRQQIAEEFETLFGRDLVNDMKSELTGKFEKLIVALMKPSRLYDAYELKHALKGAGTDEKVLTEIIASRTPEELRAIKQAYEEEYGSNLEDDVVGDTSGYYQRMLVVLLQANRDPDTAIDDAQVELDAQALFQAGELKWGTDEEKFITILGTRSVSHLRRVFDKYMTISGFQIEETIDRETSGNLENLLLAVVKSIRSIPAYLAETLYYAMKGAGTDDHTLIRVIVSRSEIDLFNIRKEFRKNFATSLYSMIKGDTSGDYKKALLLLCGGEDD
As to B1, the binding result is “binds”.

B2: AnxA5 double mutant K27E/K191E (natural protein, rat)
chain: ALRGTVTDFSGFDGRADAEVLRKAMEGLGTDEDSILNLLTARSNAQRQQIAEEFKTLFGRDLVNDMKSELTGKFEKLIVALMKPSRLYDAYELKHALKGAGTDEKVLTEIIASRTPEELRAIKQAYEEEYGSNLEDDVVGDTSGYYQRMLVVLLQANRDPDTAIDDAQVELDAQALFQAGELKWGTDEEEFITILGTRSVSHLRRVFDKYMTISGFQIEETIDRETSGNLENLLLAVVKSIRSIPAYLAETLYYAMKGAGTDDHTLIRVIVSRSEIDLFNIRKEFRKNFATSLYSMIKGDTSGDYKKALLLLCGGEDD
For the protein B2, the binding result was “binds”.

B3: AnxA5 single mutant K27E (natural protein, rat)
chain: ALRGTVTDFSGFDGRADAEVLRKAMEGLGTDEDSILNLLTARSNAQRQQIAEEFKTLFGRDLVNDMKSELTGKFEKLIVALMKPSRLYDAYELKHALKGAGTDEKVLTEIIASRTPEELRAIKQAYEEEYGSNLEDDVVGDTSGYYQRMLVVLLQANRDPDTAIDDAQVELDAQALFQAGELKWGTDEEKFITILGTRSVSHLRRVFDKYMTISGFQIEETIDRETSGNLENLLLAVVKSIRSIPAYLAETLYYAMKGAGTDDHTLIRVIVSRSEIDLFNIRKEFRKNFATSLYSMIKGDTSGDYKKALLLLCGGEDD
For B3, the binding result is on record as “binds”.

B4: AnxA5 triple mutant R16E/K27E/K191E (natural protein, rat)
chain: ALRGTVTDFSGFDGEADAEVLRKAMEGLGTDEDSILNLLTARSNAQRQQIAEEFKTLFGRDLVNDMKSELTGKFEKLIVALMKPSRLYDAYELKHALKGAGTDEKVLTEIIASRTPEELRAIKQAYEEEYGSNLEDDVVGDTSGYYQRMLVVLLQANRDPDTAIDDAQVELDAQALFQAGELKWGTDEEEFITILGTRSVSHLRRVFDKYMTISGFQIEETIDRETSGNLENLLLAVVKSIRSIPAYLAETLYYAMKGAGTDDHTLIRVIVSRSEIDLFNIRKEFRKNFATSLYSMIKGDTSGDYKKALLLLCGGEDD
In the case of B4, the binding result was “binds”.

B5: AnxA5 single mutant K56E (natural protein, rat)
chain: ALRGTVTDFSGFDGRADAEVLRKAMKGLGTDEDSILNLLTARSNAQRQQIAEEFETLFGRDLVNDMKSELTGKFEKLIVALMKPSRLYDAYELKHALKGAGTDEKVLTEIIASRTPEELRAIKQAYEEEYGSNLEDDVVGDTSGYYQRMLVVLLQANRDPDTAIDDAQVELDAQALFQAGELKWGTDEEKFITILGTRSVSHLRRVFDKYMTISGFQIEETIDRETSGNLENLLLAVVKSIRSIPAYLAETLYYAMKGAGTDDHTLIRVIVSRSEIDLFNIRKEFRKNFATSLYSMIKGDTSGDYKKALLLLCGGEDD
As for B5, the binding result is “binds”.

B6: AnxA5 single mutant R23E (natural protein, rat)
chain: ALRGTVTDFSGFDGRADAEVLEKAMKGLGTDEDSILNLLTARSNAQRQQIAEEFKTLFGRDLVNDMKSELTGKFEKLIVALMKPSRLYDAYELKHALKGAGTDEKVLTEIIASRTPEELRAIKQAYEEEYGSNLEDDVVGDTSGYYQRMLVVLLQANRDPDTAIDDAQVELDAQALFQAGELKWGTDEEKFITILGTRSVSHLRRVFDKYMTISGFQIEETIDRETSGNLENLLLAVVKSIRSIPAYLAETLYYAMKGAGTDDHTLIRVIVSRSEIDLFNIRKEFRKNFATSLYSMIKGDTSGDYKKALLLLCGGEDD
In the case of B6, the binding result was “binds”.

B7: AnxA5 single mutant K191E (natural protein, rat)
chain: ALRGTVTDFSGFDGRADAEVLRKAMKGLGTDEDSILNLLTARSNAQRQQIAEEFKTLFGRDLVNDMKSELTGKFEKLIVALMKPSRLYDAYELKHALKGAGTDEKVLTEIIASRTPEELRAIKQAYEEEYGSNLEDDVVGDTSGYYQRMLVVLLQANRDPDTAIDDAQVELDAQALFQAGELKWGTDEEEFITILGTRSVSHLRRVFDKYMTISGFQIEETIDRETSGNLENLLLAVVKSIRSIPAYLAETLYYAMKGAGTDDHTLIRVIVSRSEIDLFNIRKEFRKNFATSLYSMIKGDTSGDYKKALLLLCGGEDD
On to B7, for which the binding result is listed as “binds”.

B8: AnxA5 triple mutant R23E/K27E/K191E (natural protein, rat)
chain: ALRGTVTDFSGFDGRADAEVLEKAMEGLGTDEDSILNLLTARSNAQRQQIAEEFKTLFGRDLVNDMKSELTGKFEKLIVALMKPSRLYDAYELKHALKGAGTDEKVLTEIIASRTPEELRAIKQAYEEEYGSNLEDDVVGDTSGYYQRMLVVLLQANRDPDTAIDDAQVELDAQALFQAGELKWGTDEEEFITILGTRSVSHLRRVFDKYMTISGFQIEETIDRETSGNLENLLLAVVKSIRSIPAYLAETLYYAMKGAGTDDHTLIRVIVSRSEIDLFNIRKEFRKNFATSLYSMIKGDTSGDYKKALLLLCGGEDD
B8: the binding result is “binds”.

B9: AnxA5 single mutant R16E (natural protein, rat)
chain: ALRGTVTDFSGFDGEADAEVLRKAMKGLGTDEDSILNLLTARSNAQRQQIAEEFKTLFGRDLVNDMKSELTGKFEKLIVALMKPSRLYDAYELKHALKGAGTDEKVLTEIIASRTPEELRAIKQAYEEEYGSNLEDDVVGDTSGYYQRMLVVLLQANRDPDTAIDDAQVELDAQALFQAGELKWGTDEEKFITILGTRSVSHLRRVFDKYMTISGFQIEETIDRETSGNLENLLLAVVKSIRSIPAYLAETLYYAMKGAGTDDHTLIRVIVSRSEIDLFNIRKEFRKNFATSLYSMIKGDTSGDYKKALLLLCGGEDD
For B9, the binding result is recorded as “binds”.
